Test results as given in US11608380B2, “Anti-EGFRvIII antibodies and uses thereof” (REGENERON PHARMACEUTICALS, INC., priority 2014, dated 2023).

Legend:
EGFR-mFc = EGFR-mFc (Homo sapiens, UniProt P00533); assay: SPR (BIACORE) binding kinetics, receptor-capture format; conditions: 37° C., EGFR-mFc captured, NB=no binding
Description: (§1) Measurements were conducted on a T100 BIACORE™ instrument. […] In the receptor-capture format, either EGFRvIII-mFc or EGFR-mFc, was captured on the BIACORE™ chip and the respective antibodies flowed over. Kinetic association (ka) and dissociation (kd) rate constants were determined by processing and fitting the data to a 1:1 binding model using Scrubber 2.0 curve fitting software. Binding dissociation equilibrium constants (KD) and dissociative half-lives (t1/2) were calculated from the kinetic rate constants as: KD (M)=kd/ka; and t1/2 (min)=ln 2/(60*kd).

EGFRvIII-mFc = assay type: binding, human
Description: as §1

[1] = tested on: N-term Biotin control peptide; assay: Antibody specificity by ELISA; conditions: ELISA binding, irrelevant peptide with N-terminal biotin
Description: (§2) To further characterize anti-hEGFRvIII mAbs, their binding specificity was examined by ELISA. […] For the junctional peptides that were linked to biotin either at C-terminal (SEQ ID NO:149) or N-terminal (SEQ ID NO:150) via a linker, plates were pre-coated with avidin. Also, coated was an irrelevant peptide (control peptide) with or without biotin at its N-terminal. Anti-EGFRvIII antibodies as well as an isotype control antibody were added to coated plates and allowed to incubate for 1 hour at 25° C. The plates were then washed and bound anti-EGFRvIII mAbs were detected with anti-human Fc antibodies conjugated with horse-radish peroxidase (HRP). Plates were developed with a tetra-methyl-benzidine (TMB) substrate solution to produce a colorimetric reaction and neutralized with sulfuric acid before reading absorbance at 450 nm on a VICTOR™ X5 plate reader. Data analysis used a sigmoidal dose-response model within PRISM™ software. […] NT: Not tested. Controls I-III: As described above.

Control peptide = assay: Antibody specificity by ELISA; conditions: ELISA binding, irrelevant peptide
Description: as §2

EGFR-mmh = EGFR-mmh (Homo sapiens, UniProt P00533); assay: Antibody specificity by ELISA; conditions: read-out: EC50 EGFR-mmh (25° C.), ELISA binding, plate coated with EGFR-mmh
Description: (§3) To further characterize anti-hEGFRvIII mAbs, their binding specificity was examined by ELISA. […] For the junctional peptides that were linked to biotin either at C-terminal (SEQ ID NO:149) or N-terminal (SEQ ID NO:150) via a linker, plates were pre-coated with avidin. Also, coated was an irrelevant peptide (control peptide) with or without biotin at its N-terminal. Anti-EGFRvIII antibodies as well as an isotype control antibody were added to coated plates and allowed to incubate for 1 hour at 25° C. The plates were then washed and bound anti-EGFRvIII mAbs were detected with anti-human Fc antibodies conjugated with horse-radish peroxidase (HRP). […] Data analysis used a sigmoidal dose-response model within PRISM™ software.

N-term biotin J-peptide = N-term biotin J-peptide (Homo sapiens, UniProt P00533, DELINS30-297G); assay: Antibody specificity by ELISA; conditions: ELISA binding, avidin pre-coated plates
Description: as §3

[2] = target: junctional peptide (J-peptide) (Homo sapiens, UniProt P00533, DELINS30-297G); assay: Antibody specificity by ELISA; conditions: ELISA binding
Description: as §3

EGFRvIII-mmh = EGFRvIII-mmh (Homo sapiens, UniProt P00533, DELINS30-297G); assay: Antibody specificity by ELISA; conditions: ELISA binding, plate coated with EGFRvIII-mmh
Description: as §3

C-term biotin J-peptide = C-term biotin J-peptide (Homo sapiens, UniProt P00533, DELINS30-297G); assay: Antibody specificity by ELISA; conditions: ELISA binding, avidin pre-coated plates
Description: as §3

HEK293 cells = assay: FACS cell binding selectivity; assay type: cell-based; conditions: directly labeled (ALEXA FLUOR 488) antibodies, 10 μg/ml
Description: To determine the specificity of the anti-EGFRvIII mAbs, their binding to HEK293, HEK293 cells expressing EGFRvIII (HEK293/EGFRvIII) and A431 cells, was analyzed by fluorescence activated cell sorting (FACS). HEK293/EGFRvIII cells were prepared by transfecting HEK293 cells with neomycin resistant DNA vectors constitutively expressing full-length hEGFRvIII (SEQ ID NO:147) using LIPOFECTAMINE™ 2000 transfection reagent (INVITROGEN™). At two days post-transfection, cells were placed under G418 selection for approximately two weeks. Populations positively expressing EGFRvIII were isolated via fluorescence activated cell sorting (FACS). The HEK293 cells expressing ˜3×10^6 copies of EGFRvIII per cell were used in the experiment. Briefly, the anti-EGFRvIII antibodies at 10 μg/ml were incubated with cells for 30 minutes at room temperature, washed, incubated with secondary antibody, i.e., phycoerythrin (PE)-labeled goat F(ab′)2 against human IgG (cat #109-116-170, Jackson ImmunoResearch Laboratories), followed by a final wash before FACS analysis. In another set of experiment, anti-EGFRvIII antibodies were directly conjugated via their lysine residues with the fluorescent dye, ALEXA FLUOR® 488 Dye (INVITROGEN™), thereby eliminating the step using the secondary antibody. […] Controls I, II, III, IV and V are described above. MFI: Mean Fluorescence Intensity.

[3] = 37° C., receptor-capture, EGFRvIII-mFc captured

B1: H1H1915N: human IgG1 Fc anti-EGFRvIII antibody with variable domains 1915; HCVR/LCVR SEQ ID NOs 82/90 (antibody, V domains shown)
VH: QVQLVESGGGVVQPGRSLRLSCAASGFTFSAYAMHWVRQAPGKGLEWVAVIWYDGSNKNYADSVKGRFTVSRDNSKNTLYLEMNSLRAEDTAVYYCARDLMVGVTNYWGQGTLVTVST
VL: DVVMTQSPLSLPVALGQPASISCRSSQSLVYTDGNTYLNWFHQRPGQSPRRLIYKVSNRDSGVPDRFTGSGSGTDFTLKISRVEAEDVGVFYCMQGSHWPPYTFGQGTKLEIK
modifications: human IgG1 Fc
ka (EGFR-mFc): 43500 M⁻¹ s⁻¹
kd (EGFR-mFc): 0.00801 s⁻¹
ka (EGFRvIII-mFc; [3]): 100000 M⁻¹ s⁻¹
kd (EGFRvIII-mFc; [3]): 0.000328 s⁻¹
selectivity for EGFRvIII over wild-type EGFR (EGFRvIII-mFc; receptor capture format (Table 4)): greatest selectivity
EC50 [1]: > 10 nM
EC50 (Control peptide): > 10 nM
EC50 (EGFR-mmh): > 10 nM
EC50 (N-term biotin J-peptide): > 10 nM
EC50 [2]: > 10 nM
EC50 EGFRvIII-mmh (25° C.) (EGFRvIII-mmh): strong binding
EC50 (C-term biotin J-peptide): > 10 nM
Parental HEK293 MFI (HEK293 cells): 3461
